# Experimental data taken from patent publication US20230140797A1 (published 2023).
# Substitutions are numbered along the chain they refer to.
# T1: human FcγRIIb extracellular domain with C-terminal His tag (human, UniProt P31994 43-217)
# T1 sequence (looked up): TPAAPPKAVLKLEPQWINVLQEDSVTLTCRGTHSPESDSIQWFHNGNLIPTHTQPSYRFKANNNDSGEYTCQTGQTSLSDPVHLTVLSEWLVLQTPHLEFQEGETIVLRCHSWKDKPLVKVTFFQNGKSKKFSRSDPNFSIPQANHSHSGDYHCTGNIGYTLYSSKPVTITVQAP
# T2: human FcγRIIa type R (131Arg) extracellular domain with C-terminal His tag (human, UniProt P12318 34-217)
# T2 sequence (looked up): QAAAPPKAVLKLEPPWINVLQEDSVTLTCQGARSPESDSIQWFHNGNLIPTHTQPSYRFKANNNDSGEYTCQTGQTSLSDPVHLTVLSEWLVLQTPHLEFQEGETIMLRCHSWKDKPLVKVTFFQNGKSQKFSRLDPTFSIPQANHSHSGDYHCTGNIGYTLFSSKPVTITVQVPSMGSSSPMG
# T3: human FcγRIIb extracellular domain with C-terminal His tag (human, UniProt P31994 43-217)
# T3 sequence (looked up): T1 sequence (looked up)
# T4: human FcγRIIb extracellular domain with C-terminal His tag (human, UniProt P31994 43-217)
# T4 sequence (looked up): T1 sequence (looked up)
# B1: IL6R-BP911/IL6R-L (antibody, human IgG1, kappa)
# heavy: QVQLQESGPGLVKPSETLSLTCAVSGHSISHDHAWSWVRQPPGEGLEWIGFISYSGITNYNPSLQGRVTISRDNSKNTLYLQMNSLRAEDTAVYYCARSLARTTAMDYWGEGTLVTVSSASTKGPSVFPLAPSSKSTSGGTAALGCLVKDYFPEPVTVSWNSGALTSGVHTFPAVLQSSGLYSLSSVVTVPSSSLGTQTYICNVNHKPSNTKVDKKVEPKSCDKTHTCPPCPAPELLGGDSVFLFPPKPKDTLMISRTPEVTCVVVDVSHEDPEVKFNWYVDGVEVHNAKTKPREEQYNSTYRVVSVLTVLHQDWLNGKEYKCKVSNKALPKPIEKTISKAKGQPREPQVYTLPPSRDELTKNQVSLTCLVKGFYPSDIAVEWESNGQPENNYKTTPPVLDSDGSFFLYSKLTVDKSRWQQGNVFSCSVMHEALHNHYTQESLSLSP
# light: not shown
# B2: IL6R-BP136/IL6R-L (antibody, human IgG1, kappa)
# heavy: B1 heavy with K328A, K332A
# light: not shown
# B3: IL6R-BP112/IL6R-L (antibody, human IgG1, kappa)
# heavy: B1 heavy with P273G, K332A
# light: not shown
# B4: IL6R-BP121/IL6R-L (antibody, human IgG1, kappa)
# heavy: B1 heavy with K328Q, K332A
# light: not shown
# B5: IL6R-BP912/IL6R-L (antibody, human IgG1, kappa)
# heavy: B1 heavy with K332R
# light: not shown
# B6: IL6R-2B172/IL6R-L (antibody, human IgG1, kappa)
# heavy: B1 heavy with V325M, K332A
# light: not shown
# B7: IL6R-BP142/IL6R-L (antibody, human IgG1, kappa)
# heavy: B1 heavy with K328N, K332A
# light: not shown
# B8: IL6R-BP106/IL6R-L (antibody, human IgG1, kappa)
# heavy: B1 heavy with H270D, K332A
# light: not shown
# B9: IL6R-BP118/IL6R-L (antibody, human IgG1, kappa)
# heavy: B1 heavy with K328S, K332A
# light: not shown
# B10: IL6R-BP102/IL6R-L (antibody, human IgG1, kappa)
# heavy: B1 heavy with S269Q, K332A
# light: not shown
# B11: IL6R-BP110/IL6R-L (antibody, human IgG1, kappa)
# heavy: B1 heavy with H270N, K332A
# light: not shown
# B12: IL6R-2B169/IL6R-L (antibody, human IgG1, kappa)
# heavy: B1 heavy with V325I, K332A
# light: not shown
# B13: IL6R-BP126/IL6R-L (antibody, human IgG1, kappa)
# heavy: B1 heavy with K328L, K332A
# light: not shown
# B14: IL6R-BP103/IL6R-L (antibody, human IgG1, kappa)
# heavy: B1 heavy with S269V, K332A
# light: not shown
# B15: IL6R-BP100/IL6R-L (antibody, human IgG1, kappa)
# heavy: B1 heavy with S269A, K332A
# light: not shown
# B16: IL6R-BP078/IL6R-L (antibody, human IgG1, kappa)
# heavy: B1 heavy with K332M
# light: not shown
# B17: IL6R-2B002/IL6R-L (antibody, human IgG1, kappa)
# heavy: B1 heavy with E235D, K332A
# light: not shown
# B18: IL6R-BP116/IL6R-L (antibody, human IgG1, kappa)
# heavy: B1 heavy with K328T, K332A
# light: not shown
# B19: IL6R-2B128/IL6R-L (antibody, human IgG1, kappa)
# heavy: B1 heavy with Y298D, K332A
# light: not shown
# B20: IL6R-BP117/IL6R-L (antibody, human IgG1, kappa)
# heavy: B1 heavy with K328D, K332A
# light: not shown
# B21: IL6R-BP265/IL6R-L (antibody, human IgG1, kappa)
# heavy: B1 heavy with G239D, H270E, P273G, Y298D, K332R
# light: not shown
# B22: IL6R-BP435/IL6R-L (antibody, human IgG1, kappa)
# heavy: B1 heavy with E235D, G239D, H270D, P273G, Y298D, K328A, K332R, I334T
# light: not shown
# B23: IL6R-BP268/IL6R-L (antibody, human IgG1, kappa)
# heavy: B1 heavy with E235D, G239D, H270E, P273G, Y298D, K332A
# light: not shown
# B24: IL6R-BP499/IL6R-L (antibody, human IgG1, kappa)
# heavy: B1 heavy with E235D, G239D, V266I, S269A, H270E, P273G, Y298D, K332R, P398L
# light: not shown
# B25: IL6R-BP494/IL6R-L (antibody, human IgG1, kappa)
# heavy: B1 heavy with G239D, S269A, H270E, P273G, Y298D, K332R
# light: not shown
# B26: IL6R-BP489/IL6R-L (antibody, human IgG1, kappa)
# heavy: B1 heavy with E235D, G239D, V266I, S269A, H270E, P273G, Y298D, K332R, P398M
# light: not shown
# B27: IL6R-BP539/IL6R-L (antibody, human IgG1, kappa)
# heavy: B1 heavy with G239D, V266I, S269G, H270E, P273G, E274P, Y298D, K332R
# light: not shown
# B28: BP562 (antibody, human IgG1, kappa)
# heavy: B1 heavy with G239D, H270D, P273G, E274D, Y298D, K332R
# light: not shown
# B29: BP563 (antibody, human IgG1, kappa)
# heavy: B1 heavy with E235D, G239D, H270E, P273G, E274D, Y298D, K332R
# light: not shown
# B30: IL6R-BP536/IL6R-L (antibody, human IgG1, kappa)
# heavy: B1 heavy with E235D, G239D, V266I, H270E, P273G, Y298D, A329G, K332R, P398M
# light: not shown
# B31: IL6R-BP502/IL6R-L (antibody, human IgG1, kappa)
# heavy: B1 heavy with E235D, G239D, V266I, S269A, H270E, P273G, Y298D, A329G, K332R
# light: not shown
# B32: IL6R-BP551/IL6R-L (antibody, human IgG1, kappa)
# heavy: B1 heavy with G239D, V266I, H270E, P273G, E274D, Y298D, K332R
# light: not shown
# B33: IL6R-BP503/IL6R-L (antibody, human IgG1, kappa)
# heavy: B1 heavy with E235D, G239D, V266I, S269A, H270E, P273G, Y298D, A329G, K332R, P398M
# light: not shown
# B34: BP509 (antibody, human IgG1, kappa)
# heavy: B1 heavy with E235D, G239D, V266I, S269A, H270E, P273G, E274D, Y298D, K332A
# light: not shown
# B35: IL6R-BP550/IL6R-L (antibody, human IgG1, kappa)
# heavy: B1 heavy with G239D, V266I, S269G, H270E, P273G, E274D, Y298D, K332R
# light: not shown
# B36: IL6R-BP568/IL6R-L (antibody, human IgG1, kappa)
# heavy: B1 heavy with E235D, V266I, S269A, H270E, P273G, K332A
# light: not shown
# B37: IL6R-BP511/IL6R-L (antibody, human IgG1, kappa)
# heavy: B1 heavy with G239D, V266I, S269A, H270E, P273G, E274P, Y298D, K332R
# light: not shown
# B38: IL6R-BP567/IL6R-L (antibody, human IgG1, kappa)
# heavy: B1 heavy with E235D, V266I, S269A, H270E, P273G, Y298D, K332A
# light: not shown
# B39: IL6R-BP500/IL6R-L (antibody, human IgG1, kappa)
# heavy: B1 heavy with G239D, V266I, S269A, H270E, P273G, Y298D, K332A
# light: not shown
# B40: IL6R-BP565/IL6R-L (antibody, human IgG1, kappa)
# heavy: B1 heavy with E235D, G239D, S269A, H270E, P273G, Y298D, K332R
# light: not shown
# B41: BP504 (antibody, human IgG1, kappa)
# heavy: B1 heavy with E235D, G239D, V266I, S269A, H270E, P273G, E274P, K332A
# light: not shown
# B42: BP560 (antibody, human IgG1, kappa)
# heavy: B1 heavy with S269G, H270E, P273G, Y298D, K332R
# light: not shown
# B43: IL6R-BP533/IL6R-L (antibody, human IgG1, kappa)
# heavy: B1 heavy with E235D, G239D, V266I, S269G, H270E, P273G, Y298D, K332R, P398L
# light: not shown
# B44: BP508 (antibody, human IgG1, kappa)
# heavy: B1 heavy with E235D, G239D, V266I, S269A, H270E, P273G, E274P, Y298D, K332A
# light: not shown
# Target: T1, human FcγRIIb extracellular domain with …
# Test: SPR Biacore, ratio of KDs
row,KD (IIb) of the parent polypeptide/KD (IIb) of the altered polypeptide,Binder
1,3.5 fold (parent IL6R-B3/IL6R-L),B1
2,3.9 fold (parent IL6R-B3/IL6R-L),B2
3,9.7 fold (parent IL6R-B3/IL6R-L),B3
4,2.8 fold (parent IL6R-B3/IL6R-L),B4
5,2.1 fold (parent IL6R-B3/IL6R-L),B5
6,4 fold (parent IL6R-B3/IL6R-L),B6
7,2.6 fold (parent IL6R-B3/IL6R-L),B7
8,3.3 fold (parent IL6R-B3/IL6R-L),B8
9,2.7 fold (parent IL6R-B3/IL6R-L),B9
10,3.4 fold (parent IL6R-B3/IL6R-L),B10
11,2.1 fold (parent IL6R-B3/IL6R-L),B11
12,2.6 fold (parent IL6R-B3/IL6R-L),B12
13,2.2 fold (parent IL6R-B3/IL6R-L),B13
14,2.5 fold (parent IL6R-B3/IL6R-L),B14
15,2.9 fold (parent IL6R-B3/IL6R-L),B15
16,2.8 fold (parent IL6R-B3/IL6R-L),B16
17,3.3 fold (parent IL6R-B3/IL6R-L),B17
18,2.8 fold (parent IL6R-B3/IL6R-L),B18
19,2.1 fold (parent IL6R-B3/IL6R-L),B19
20,3.9 fold (parent IL6R-B3/IL6R-L),B20

# Target: T2, human FcγRIIa type R (131Arg) …
# Test: SPR
row,Kd,Binder
1,830 nM,B21
2,120 nM,B22
3,1300 nM,B23

# Target: T3, human FcγRIIb extracellular domain with …
# Test: ratio of SPR KDs
row,KD (IIaR)/KD (IIb),Binder
1,38.3,B24
2,38.6,B25
3,42.3,B26

# Target: T4, human FcγRIIb extracellular domain with …
# Test: SPR
row,KD (IIaH)/KD (IIb),Binder
1,667,B27
2,466,B28
3,525,B29
4,438,B30
5,352,B31
6,436,B32
7,503,B33
8,444,B34
9,655,B35
10,748,B36
11,1240,B37
12,1230,B38
13,1030,B39
14,856,B40
15,658,B41
16,168,B42
17,684,B43
18,962,B44

# Target: T4, human FcγRIIb extracellular domain with …
# Test: SPR
# Remark: another data set of the same source
row,KD (IIaR)/KD (IIb),Binder
1,38,B27
2,20,B28
3,29.1,B29
4,26.6,B30
5,28.5,B31
6,38.1,B32
7,33.2,B33
8,29.2,B34
9,44.2,B35
10,46.1,B36
11,50.6,B37
12,64.4,B38
13,28.9,B39
14,41.5,B40
15,18.5,B41
16,22.8,B42
17,28.3,B43
18,26,B44
